This is an account of results in US20240409645A1 (DUALYX, published 2024).

First the molecules themselves.
T1: human common cytokine receptor γ-chain (γc; IL-2Rγ; CD132), recombinant protein (human, UniProt P31785 23-262)
T1 construct: also called human IL-2R subunit CD132
T1 sequence: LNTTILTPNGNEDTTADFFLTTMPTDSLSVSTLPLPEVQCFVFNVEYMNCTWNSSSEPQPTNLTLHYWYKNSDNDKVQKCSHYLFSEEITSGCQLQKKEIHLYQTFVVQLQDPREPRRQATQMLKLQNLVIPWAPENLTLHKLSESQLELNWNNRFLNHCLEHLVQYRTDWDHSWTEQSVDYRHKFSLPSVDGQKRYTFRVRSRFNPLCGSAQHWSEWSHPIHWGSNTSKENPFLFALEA

T2: mouse IL-2Rγ, recombinant protein (mouse, UniProt P34902 23-263, limits assumed)
T2 sequence (looked up): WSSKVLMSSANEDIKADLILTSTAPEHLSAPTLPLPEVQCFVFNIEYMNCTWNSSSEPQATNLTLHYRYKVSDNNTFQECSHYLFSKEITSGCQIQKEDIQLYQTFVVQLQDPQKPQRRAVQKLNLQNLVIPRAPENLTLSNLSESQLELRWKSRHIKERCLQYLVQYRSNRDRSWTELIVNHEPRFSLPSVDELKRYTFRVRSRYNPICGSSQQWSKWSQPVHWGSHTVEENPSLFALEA

T3: human interleukin-2 receptor α-chain (human, UniProt P01589 22-240, limits assumed)
T3 construct: Recombinant human IL-2Rα protein, coated on the ELISA plate or amine-coupled to a CM5 chip; also called human IL-2Rα; hu IL-2R
T3 sequence: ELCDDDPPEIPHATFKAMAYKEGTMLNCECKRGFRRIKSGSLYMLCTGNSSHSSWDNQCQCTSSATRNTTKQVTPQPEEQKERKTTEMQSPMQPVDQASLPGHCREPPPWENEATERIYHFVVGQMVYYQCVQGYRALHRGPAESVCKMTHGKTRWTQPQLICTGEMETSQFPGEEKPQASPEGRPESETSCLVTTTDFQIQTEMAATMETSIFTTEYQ

B1: 28-MP04D02 VHH (periplasmic extract) (VHH)
VHH: QVQLVESGGGLVQAGGSLRLSCAASGRTLSRYAMGWFRQAPGKEREFVTANSWGGDTYYADSVQGRFTFSRDNAKNTVYLQMNSLQPEDTAVYYCAAAPTSFATTAYSGSNSYAYWGQGTQVTVSS
notes: soluble VHH in periplasmic extract
B2: 38-MP07A11 VHH (periplasmic extract) (VHH)
VHH: QVQLVESGGGLVQAGGSLRLSCAASGRSLSRDAMGWFRQAPGKEREFVAVMSWGGDTFYTDSVEGRFTFSRDNAKNAVYLEMNDLQPEDTAVYYCAAAPTSFATTAYSSSNSYSYWGRGTQVTVSS
notes: as for B1
B3: 37-MP07F09 VHH (periplasmic extract) (VHH)
VHH: B1 VHH with F47Y, T49A, A50I, N51D, Y58F, Q64E, T77E, A97G, G109S, A114R
notes: as for B1
B4: 34-MP04A12 VHH (periplasmic extract) (VHH)
VHH: QVQLVESGGGLVQAGSSLRLSCAASGRTLSRLAMGWFRQAPGKEREFVAVNSWGGDTFYADSVEGRFTYSRDNAKSAVYLQMNSLQPEDTAVYYCAAAPTSFATTAYSSSNSYAYWGQGAQVTVSS
notes: as for B1
B5: 31-MP04E03 VHH (periplasmic extract) (VHH)
VHH: QVQLVESGGGLVQAGGSLRLSCTGYGGAFTGYALGWFRQAPGKEREFVARINWSGSFTYYASSVKGRFTISRDNAKNTMYLQMNNLKPEDTAVYYCAADNPSTLATDYDNWGQGTQVTVSS
notes: as for B1
B6: FJ1427_P035MP05C12 (VHH)
VHH: EVQLVESGGGLVQAGDSLRLSCAASGFNFGWHAMGWFRQAPGKEREFVATITWTGRDTYYADSVRGRFTISKDNAKNTLFLQMSSLRPDDTGVYYCAKARERATWAYSEDDCDYWGQGTQVTVSS
notes: Tested as soluble VHH in a crude periplasmic extract (P.E.); CDR3 family 1; also called Clone nr
B7: FJ1427_P035MP05E12 (VHH)
VHH: B6 VHH with E1Q, V2L, N77D, S84N
notes: as for B6
B8: FJ1427_P035MP05F11 (VHH)
VHH: QVQLVESGGGSVQAGGSLRLSCAASGRTLYSSYGMAWFRQAPGKERDFVGSISRYGTYTSYADSVKDRFTISRDNAKSTVYLQMNNTKPEDTAVYYCAAYTYSGSFYSAVKTHRDEYQYWGQGTQVTVSS
notes: Tested as soluble VHH in a crude periplasmic extract (P.E.); CDR3 family 15; also called Clone nr; 470
B9: FJ1427_P035MP05D12 (VHH)
VHH: B8 VHH with V2L, A109T
notes: Tested as soluble VHH in a crude periplasmic extract (P.E.); CDR3 family 15; also called Clone nr

Where a chain is given by its changes, count along the chain named.

For one assay, the target named is T1, human common cytokine receptor γ-chain …. Put plainly: P.E. off-rate SPR. An outline of the steps:
(§1)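 Immobilised receptor density: ~2500 RU (CM5, amine coupling). Analyte: VHH-containing P.E., 30 uL/min. Read-out: off-rate over 120s.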
For the molecule B1, the koff is 0.0088 s⁻¹.
Consider B2, for which the koff was 0.00235 s⁻¹.
For the molecule B3, the koff is 0.00126 s⁻¹.
Still for that read-out and setting: next, B4: 0.000333 s⁻¹.

In another assay the target is T2, mouse IL-2Rγ, recombinant protein. Nature of the assay: P.E. off-rate SPR. The procedure, abridged:
as §1
With B5, the koff came out at 0.283 s⁻¹.
Same read-out and setting: the result for B1 reads 0.319 s⁻¹.
Same read-out and setting: next, B2: 0.0149 s⁻¹; B3: 0.007 s⁻¹; B4: 0.00809 s⁻¹.

The target of another assay is T1, human common cytokine receptor γ-chain …. Put plainly: P.E. binding ELISA. An outline of the steps: (§2)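 Read-out: OD at 450 nm, specificity called versus negative controls. Receptor chains (human or mouse IL-2Rα, β, γ) were coated directly overnight at 4° C; 4% Marvel/PBS block 1 h; P.E. at 1:5 dilution in 1% Marvel/PBS incubated 1 h.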
Take B1: the OD450 nm is 0.782 OD450 nm.
On the same count and under the same terms, next, B2: 1.31 OD450 nm.
With B3, the OD450 nm was 1.81 OD450 nm.
Same read-out and setting: next, B4: 1.3 OD450 nm.

In the next assay the target is T2, mouse IL-2Rγ, recombinant protein. Put plainly: P.E. binding ELISA. The procedure, abridged: as §2
(In an ELISA, binding on a coated surface is turned into a signal by an enzyme label.)
Take B5: the OD450 nm was found to be 0.495 OD450 nm.
On the same count and under the same terms, the result for B1 reads 0.054 OD450 nm; that for B2, 0.173 OD450 nm.
On the same count and under the same terms, the result for B3 reads 1.49 OD450 nm.
On the same count and under the same terms, the result for B4 reads 3.6 OD450 nm.

The target of the next assay is T3, human interleukin-2 receptor α-chain. Put plainly: binding ELISA, periplasmic extract 1:5 on coated human IL-2Rα, anti-c-myc detection. On the procedure:
In a binding ELISA, human or mouse IL-2Rα, IL-2Rβ and IL-2Rγ proteins were coated directly on maxisorp microtiter plates overnight at 4° C. Free binding sites were blocked using 4% Marvel in PBS for 1 hour. Next, 1:5 dilution of P.E. in 1% Marvel/PBS were added to wells and incubated for 1 hour. […] Binding specificity was determined based on O.D. at 450 nm values compared to negative controls.
Regarding B6, the “PE binding ELISA (OD450 nm)” value was 2.4 OD450.
B7: the “PE binding ELISA (OD450 nm)” value was 2.15 OD450.
Same read-out and setting: next, B8: 2.27 OD450.
On to B9, for which the “PE binding ELISA (OD450 nm)” value came to 2.39 OD450.

For another assay the target is unchanged. Nature of the assay: SPR (Biacore 3000) off-rate ranking, periplasmic extract over immobilised human IL-2Rα. The procedure:
SPR was performed to determine dissociation rates using Biacore 3000 instrument (GE Healthcare). Briefly, human and mouse IL-2R proteins were immobilized on carboxylmethyl dextran sensor chip (CM5) at approximately 2500 RUs using amine coupling in acetate buffer (GE Healthcare). The VHH-containing P.E. were loaded with a flow rate of 30 uL/min and the off-rates were measured over a 120s period.
For orientation: In SPR one partner is held on a chip, and binding of the other changes the refractive index at the surface.
B6: the koff was 0.000874 s⁻¹.
Regarding B7, the koff was 0.000273 s⁻¹.
B8 returned a koff of 0.00173 s⁻¹.
B9 displayed a koff of 0.00235 s⁻¹.

By koff is commonly meant a measure of how fast the partners let go of each other.
